PMC5007552

Details: phosphorylation at S486

Which enzymatic_activity does the source give for “SGK3: AZD8055 (mTOR catalytic inhibitor, 0.1 uM, 1 h)” here?
Its enzymatic_activity is “decreases”.
